This is an account of results in patent publication US20250000946A1 (WUXI BIOLOGICS IRELAND, published 2025).

Assay [1] concerns the target T1, W369-hPro2.ECD.His, IL2Rβ ECD (human, UniProt P14784 27-239).
T1 construct: Entry includes linker and C-terminal 6xHis tag; also called CD122
T1 sequence: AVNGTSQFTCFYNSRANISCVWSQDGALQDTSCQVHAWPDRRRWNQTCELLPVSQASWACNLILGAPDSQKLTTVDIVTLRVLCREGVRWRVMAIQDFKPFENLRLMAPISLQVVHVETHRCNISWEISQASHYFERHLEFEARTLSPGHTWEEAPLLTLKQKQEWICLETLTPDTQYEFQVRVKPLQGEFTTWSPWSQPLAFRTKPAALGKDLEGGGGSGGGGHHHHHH
Nature of the assay: SPR Biacore 8K; set-up for IL-2Rβ not described.

The target in assay [2] is T2, Human IL-2Rα/β/γ complex (high affinity IL-2 receptor) (human, UniProt P01589 22-272; P14784 27-551; P31785 23-369).
T2 construct: whole, on cells
T2 sequence (looked up) 1: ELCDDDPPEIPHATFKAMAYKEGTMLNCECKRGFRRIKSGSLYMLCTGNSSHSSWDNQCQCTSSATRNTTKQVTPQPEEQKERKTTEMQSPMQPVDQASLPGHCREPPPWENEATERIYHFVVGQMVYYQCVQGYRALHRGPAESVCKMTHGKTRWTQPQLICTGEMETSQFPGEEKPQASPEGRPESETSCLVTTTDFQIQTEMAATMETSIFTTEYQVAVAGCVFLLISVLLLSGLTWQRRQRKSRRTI
T2 sequence (looked up) 2: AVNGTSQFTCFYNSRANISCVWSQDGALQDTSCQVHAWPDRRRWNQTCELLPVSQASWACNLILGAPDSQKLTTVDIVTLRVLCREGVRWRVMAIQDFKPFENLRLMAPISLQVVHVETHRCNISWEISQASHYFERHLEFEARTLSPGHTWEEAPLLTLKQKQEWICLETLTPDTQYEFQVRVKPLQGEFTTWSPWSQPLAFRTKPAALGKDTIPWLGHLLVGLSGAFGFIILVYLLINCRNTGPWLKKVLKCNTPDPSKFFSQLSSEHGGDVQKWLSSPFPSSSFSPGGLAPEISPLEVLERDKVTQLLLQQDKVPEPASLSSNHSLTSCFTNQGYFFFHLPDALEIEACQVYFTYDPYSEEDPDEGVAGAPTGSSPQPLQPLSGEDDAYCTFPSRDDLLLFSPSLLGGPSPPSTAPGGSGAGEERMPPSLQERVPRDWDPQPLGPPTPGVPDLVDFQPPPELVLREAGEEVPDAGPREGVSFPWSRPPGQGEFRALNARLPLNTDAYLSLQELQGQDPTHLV
T2 sequence (looked up) 3: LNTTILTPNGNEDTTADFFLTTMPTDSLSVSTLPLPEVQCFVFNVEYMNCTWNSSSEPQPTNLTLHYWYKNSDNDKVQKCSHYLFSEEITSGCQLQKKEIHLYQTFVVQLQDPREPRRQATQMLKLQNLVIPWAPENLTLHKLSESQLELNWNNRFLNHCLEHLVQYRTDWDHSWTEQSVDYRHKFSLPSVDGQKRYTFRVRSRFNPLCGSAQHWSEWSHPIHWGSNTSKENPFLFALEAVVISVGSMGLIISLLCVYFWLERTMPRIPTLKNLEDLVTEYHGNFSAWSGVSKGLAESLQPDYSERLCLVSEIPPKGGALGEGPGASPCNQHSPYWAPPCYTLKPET
The assay can be described thus: FACS, MJ20 cells. Put shortly:
(§1)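 Cultured HH, NK92 and MJ20 cells are exposed to IL-2/Fc fusion proteins for 30 min at 4° C. Bound fusion protein is then stained with PE-anti-human Fc, again 30 min at 4° C. Flow cytometry gives the MFI.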

Assay [3] deals with T3, W3XX115-hPro1.ECD.His, IL2Rα ECD (Homo sapiens (Human), UniProt P01589 22-213).
T3 construct: Entry includes the C-terminal 6xHis tag; also called CD25
T3 sequence: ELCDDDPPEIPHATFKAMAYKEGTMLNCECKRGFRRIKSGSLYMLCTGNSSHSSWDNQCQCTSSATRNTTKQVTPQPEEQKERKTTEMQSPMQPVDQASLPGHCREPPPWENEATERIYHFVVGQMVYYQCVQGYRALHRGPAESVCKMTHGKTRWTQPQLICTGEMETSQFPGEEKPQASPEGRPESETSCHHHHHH
The assay can be described thus: SPR Biacore 8K; variant captured via anti-human Fc, IL-2Rα ECD-His injected; steady state. The protocol: (§2) IL-2 variants binding affinity to IL-2 receptor were detected by SPR using Biacore 8K. For IL-2Rα binding assay, each variant was captured on anti-human Fc immobilized CM5 sensor chip (cytiva). W3XX115-hPro1.ECD.His at different concentrations were injected over the sensor chip at a flow rate of 30 uL/min for an association phase of 60 s, followed by 90 s dissociation. The chip was then regenerated by 10 mM Glycine-HCl pH1.5 after each binding cycle. For IL-2Rγ binding assay, IL-2 variants were mixed with W369-hPro2.ECD.His as 1:1 before assay, were detected by SPR using Biacore 8K. W3XX115-hPro1.ECD.His was captured on anti-His immobilized CM5 sensor chip (cytiva). The mixture were injected over the sensor chip as described above. The sensorgrams of blank surface and buffer channel were subtracted from the test sensorgrams. The experimental data was fitted by steady state affinity model. Molecular weight of W3XX115-hPro1.ECD.His or W369-hPro1.ECD.His was used to calculate the molar concentration of analyte.
(§3) For T3U0.E44-1 and T2U0.E44-33, no binding to IL-2Rα was detected.

For assay [4], the target named is T2, Human IL-2Rα/β/γ complex (high affinity …). Nature of the assay: cell-based or functional assay.
In assay [5] the target is T4, Human IL-2Rβ/γ (intermediate affinity IL-2 receptor) (human, UniProt P14784 27-551; P31785 23-369).
T4 sequence (looked up) 1: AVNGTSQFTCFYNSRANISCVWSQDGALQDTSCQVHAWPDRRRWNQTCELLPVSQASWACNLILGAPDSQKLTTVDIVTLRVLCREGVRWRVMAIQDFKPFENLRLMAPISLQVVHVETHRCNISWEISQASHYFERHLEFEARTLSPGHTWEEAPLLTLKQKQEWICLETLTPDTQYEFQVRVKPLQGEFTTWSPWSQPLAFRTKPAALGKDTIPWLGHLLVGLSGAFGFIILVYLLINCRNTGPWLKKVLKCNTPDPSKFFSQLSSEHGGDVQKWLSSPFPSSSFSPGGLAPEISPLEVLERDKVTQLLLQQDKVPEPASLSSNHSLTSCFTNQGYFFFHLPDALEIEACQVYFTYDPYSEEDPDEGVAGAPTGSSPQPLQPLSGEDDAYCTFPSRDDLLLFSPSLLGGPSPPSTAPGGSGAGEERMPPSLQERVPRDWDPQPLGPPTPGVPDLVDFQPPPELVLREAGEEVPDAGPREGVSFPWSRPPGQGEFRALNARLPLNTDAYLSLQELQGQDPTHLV
T4 sequence (looked up) 2: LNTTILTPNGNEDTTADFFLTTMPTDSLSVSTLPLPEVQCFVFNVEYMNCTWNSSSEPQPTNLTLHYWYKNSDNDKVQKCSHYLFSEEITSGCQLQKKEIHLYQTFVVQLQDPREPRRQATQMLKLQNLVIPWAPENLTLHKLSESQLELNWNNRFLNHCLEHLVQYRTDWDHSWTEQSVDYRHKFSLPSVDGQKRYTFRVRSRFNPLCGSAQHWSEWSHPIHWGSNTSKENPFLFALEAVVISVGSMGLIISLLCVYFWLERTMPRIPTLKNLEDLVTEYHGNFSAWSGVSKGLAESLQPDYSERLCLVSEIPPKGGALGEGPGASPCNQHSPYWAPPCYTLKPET
Nature of the assay: cell-based or functional assay.

Assay [6] concerns the target T2, Human IL-2Rα/β/γ complex (high affinity …). Nature of the assay: FACS, MJ20 cells; EC50 fold vs T2U0.E44-1. The protocol: Human cutaneous T cell lymphoma HH cells, malignant non-Hodgkin's lymphoma NK92 cells and cutaneous T cell lymphoma MJ20 cells were used for binding assay. They both constitutively express IL-2Rβ (CD122) and […] (CD132), and NK92 and MJ20 also expresses IL-2Rα (CD25). HH, NK92 and MJ20 cells were cultured following ATCC guidance, then transferred to a 96-plate for binding analysis. Cells were incubated with IL-2/Fc fusion proteins at the indicated concentrations for 30 min at 4° C. to avoid internalization. Binding was detected by 2nd antibody of PE-anti-human Fc at 4° C. for another 30 min. The median fluorescence intensity (MFI) on HH and NK92 cells was measured using FACS.
Mutations of F42 or R38 were involved in T2U0.E44-26 to generate IL-2 variants.

The target of assay [7] is T4, Human IL-2Rβ/γ (intermediate affinity …). Nature of the assay: FACS, HH cells; EC50 fold vs T2U0.E44-1. In a few lines: as §1
In general terms: In flow cytometry, cells or beads pass a laser one at a time.

Assay [8] addresses T3, W3XX115-hPro1.ECD.His, IL2Rα ECD. Nature of the assay: SPR Biacore 8K. On the procedure:
as §2, §3
(In general: Surface plasmon resonance follows binding to a sensor surface in real time, without labels.)

Assay [9] concerns the target T4, Human IL-2Rβ/γ (intermediate affinity …). The assay can be described thus: FACS, HH cells. In a few lines:
as §1

B1: W3XX115-T2U0.E44-33.uIgG4V322 (Fc fusion)
chain: APTSSSTKKTQLQLEHLLLDLQMILNGINNYKNPKLTWMLTFKFYMPKKATELKHLQCLEEELKPLEEVLNLAQSKNFHLRPRDLISNINVIVLELKGSETTFMCEYADETATIVEFLNRWITFCQSILESKYGPPCPPCPAPEAAGGPSVFLFPPKPKDTLMISRTPEVTCVVVDVSQEDPEVQFNWYVDGVEVHNAKTKPREEQFNSTYRVVSVLTVLHQDWLNGKEYKCKVSNKGLPSSIEKTISKAKGQPREPQVYTLPPCQEEMTKNQVSLWCLVKGFYPSDIAVEWESNGQPENNYKTTPPVLDSDGSFFLYSRLTVDKSRWQEGNVFSCSVMHEALHNHYTQKSLSLSLG
heavy: EIQLQQSGPELVKPGASVKVSCKASGYSFTDYNMYWVKQSHGESLEWIGYIDPYNGGTRYNQKFKGKATLTVDKSSSTAFMHLNSLTSEDSAVYYCARNGHWDGAWFAYWGQGTLVTVSAASTKGPSVFPLAPCSRSTSESTAALGCLVKDYFPEPVTVSWNSGALTSGVHTFPAVLQSSGLYSLSSVVTVPSSSLGTKTYTCNVDHKPSNTKVDKRVESKYGPPCPPCPAPEAAGGPSVFLFPPKPKDTLMISRTPEVTCVVVDVSQEDPEVQFNWYVDGVEVHNAKTKPREEQFNSTYRVVSVLTVLHQDWLNGKEYKCKVSNKGLPSSIEKTISKAKGQPREPQVCTLPPSQEEMTKNQVSLSCAVKGFYPSDIAVEWESNGQPENNYKTTPPVLDSDGSFFLVSRLTVDKSRWQEGNVFSCSVMHEALHNHYTQKSLSLSLG
light: DIQMNQSPSSLSASLGDTITITCHASQNINVWLSWYQQKPGNIPKLLIYKASNLHTGVPSRFSGSRSGTGFTLTISSLQPEDIATYYCHQGQSYPFTFGSGTKLEIKRTVAAPSVFIFPPSDEQLKSGTASVVCLLNNFYPREAKVQWKVDNALQSGNSQESVTEQDSKDSTYSLSSTLTLSKADYEKHKVYACEVTHQGLSSPVTKSFNRGEC
Regarding B1, the dissociation constant (Kd) in assay [1] amounted to 5870 nM; in [3], 1030 nM. The EC50 is 627 nM in assay [2] and 760 nM in assay [9]. Also, in assay [4], the “Human Treg Potency EC50 (STAT5 phosphorylation)” value came out at 0.42 nM. Further, the “Human Treg Potency reduction” value in assay [4] came out at 302 fold. Further, in [5], the “Human CD8+ T Potency EC50 (STAT5 phosphorylation)” value was 149 nM. In addition, in assay [5], the “Human CD8+ T Potency reduction” value turned out to be 41 fold. Moreover, the Affinity reduction was 13.7 fold in [6] and 15 fold in assay [7]. Also, the “fold affinity reduction compared to T2U0.E44-1” value in assay [8] was approximately 10 fold.

As a reminder, the Kd is the equilibrium constant for the complex coming apart. A high value points to lower affinity. What is called EC50 is the concentration that produces a half-maximal response. Low readings indicate greater potency, high ones weaker potency.
